According to US7657380:
Residue numbers refer to the chain shown, from its start.

B1: C225 L2/H3 Fab (Fab, V domains shown)
VH: QVQLQQSGPGLVKPSQTLSLTCTVSGFSLTNYGVHWVRQAPGKGLEWLGVIWSGGNTDYNTSLKSRLTISKDNSKSQVVLQMNSLRAEDTAVYYCARALTYYDYEFAYWGQGTLVTVSS
VL: DILLTQSPATLSLSPGERVTLSCRASQSIGTNIHWYQQKPDQSPKLLIKYASESISGIPSRFSGSGSGTDFTLTISSLQPEDFADYYCQQNNNWPTTFGAGTKLEIK
B2: C225 L2/H4 Fab (Fab, V domains shown)
VH: B1 VH with Q81T, N83T, S84N, L85M, R86D, A87P, E88V, V92T
VL: B1 VL
B3: C225 L4/H6 full length antibody (antibody, IgG1, V domains shown)
VH: B1 VH with L48V, L63V, S65G, L67F, V79Y
VL: DILLTQSPAFLSVTPGEKVTITCRASQSIGTNIHWYQQKPDQSPKLLIKYASESISGIPSRFSGSGSGTDFTLTINSLEAEDAATYYCQQNNNWPTTFGAGTKLEIK
B4: C225 L2/H8 full length antibody (antibody, IgG1, V domains shown)
VH: QVQLVESGGGLVQPGRSLRLSCAVSGFSLTNYGVHWVRQAPGKGLEWVSVIWSGGNTDYNTSVKGRFTISKDNSKSTVYLQMNSLRAEDTAVYYCARALTYYDYEFAYWGQGTLVTVSS
VL: B1 VL
B5: C225 L3/H7 full length antibody (antibody, IgG1, V domains shown)
VH: B1 VH with A40P, L48I, L67V, V79S, Q81K, M82L, N83S, L85V, R86T, E88A
VL: B1 VL with A9S, T10S, L13A, P15V, E17D, L21I, S22T, P80A, F83V, D85V
B6: C225 L0/H3 full length antibody (antibody, IgG1, V domains shown)
VH: B1 VH
VL: not shown
B7: C225 L3/H5 full length antibody (antibody, IgG1, V domains shown)
VH: B1 VH with S62P, K64T, S70N
VL: B1 VL with A9S, T10S, L13A, P15V, E17D, L21I, S22T, P80A, F83V, D85V
B8: C225 L4/H4 full length antibody (antibody, IgG1, V domains shown)
VH: B1 VH with Q81T, N83T, S84N, L85M, R86D, A87P, E88V, V92T
VL: B3 VL
B9: C225 L3/H8 full length antibody (antibody, IgG1, V domains shown)
VH: B4 VH
VL: B1 VL with A9S, T10S, L13A, P15V, E17D, L21I, S22T, P80A, F83V, D85V
B10: C225 L4/H7 full length antibody (antibody, IgG1, V domains shown)
VH: B1 VH with A40P, L48I, L67V, V79S, Q81K, M82L, N83S, L85V, R86T, E88A
VL: B3 VL
B11: C225 L4/H5 full length antibody (antibody, IgG1, V domains shown)
VH: B1 VH with S62P, K64T, S70N
VL: B3 VL
B12: C225 L3/H6 full length antibody (antibody, IgG1, V domains shown)
VH: B1 VH with L48V, L63V, S65G, L67F, V79Y
VL: B1 VL with A9S, T10S, L13A, P15V, E17D, L21I, S22T, P80A, F83V, D85V
B13: C225 L3/H4 full length antibody (antibody, IgG1, V domains shown)
VH: B1 VH with Q81T, N83T, S84N, L85M, R86D, A87P, E88V, V92T
VL: B1 VL with A9S, T10S, L13A, P15V, E17D, L21I, S22T, P80A, F83V, D85V
B14: C225 L3/H3 full length antibody (antibody, IgG1, V domains shown)
VH: B1 VH
VL: B1 VL with A9S, T10S, L13A, P15V, E17D, L21I, S22T, P80A, F83V, D85V
B15: C225 L0/H6 full length antibody (antibody, IgG1, V domains shown)
VH: B1 VH with L48V, L63V, S65G, L67F, V79Y
VL: not shown
B16: C225 L0/H4 full length antibody (antibody, IgG1, V domains shown)
VH: B1 VH with Q81T, N83T, S84N, L85M, R86D, A87P, E88V, V92T
VL: not shown
B17: C225 L2/H7 full length antibody (antibody, IgG1, V domains shown)
VH: B1 VH with A40P, L48I, L67V, V79S, Q81K, M82L, N83S, L85V, R86T, E88A
VL: B1 VL
B18: C225 L4/H3 full length antibody (antibody, IgG1, V domains shown)
VH: B1 VH
VL: B3 VL
B19: C225 L0/H7 full length antibody (antibody, IgG1, V domains shown)
VH: B1 VH with A40P, L48I, L67V, V79S, Q81K, M82L, N83S, L85V, R86T, E88A
VL: not shown
B20: C225 L0/H5 full length antibody (antibody, IgG1, V domains shown)
VH: B1 VH with S62P, K64T, S70N
VL: not shown
B21: C225 L0/H8 full length antibody (antibody, IgG1, V domains shown)
VH: B4 VH
VL: not shown
B22: C225 L4/H8 full length antibody (antibody, IgG1, V domains shown)
VH: B4 VH
VL: B3 VL
B23: ICR62 WT Fab (Fab, V domains shown)
VH: QVNLLQSGAALVKPGASVKLSCKGSGFTFTDYKIHWVKQSHGKSLEWIGYFNPNSGYSTYNEKFKSKATLTADKSTDTAYMELTSLTSEDSATYYCTRLSPGGYYVMDAWGQGASVTVSS
VL: DIQMTQSPSFLSASVGDRVTINCKASQNINNYLNWYQQKLGEAPKRLIYNTNNLQTGIPSRFSGSGSGTDYTLTISSLQPEDFATYFCLQHNSFPTFGAGTKLELK
B24: ICR62 L2/H9 Fab (Fab, V domains shown)
VH: QVQLQQSGPGLVKPGASVKVSCKGSGFTFTDYKIHWVRQAPGKSLEWMGYFNPNSGYSTYNEKFQGRVTITADKSTDTAYMELSSLRSEDTAVYYCTRLSPGGYYVMDAWGQGTLVTVSS
VL: B23 VL with F10S, N22T, K24R, L40P, E42K, L105I

molecular target: T1, EGFR extracellular domain (R&D Systems) (UniProt P00533 25-645, limits assumed); experiment: SPR, Fab over EGFR ECD on CM5 chip

Binder	Kd [nM]	koff [s⁻¹]	kon [M⁻¹ s⁻¹]
B1	192	0.00535	27900
B2	264	0.00473	17900

molecular target: T1, EGFR extracellular domain (R&D Systems); experiment: SPR, full length antibody over EGFR chip

Binder	binding result
B3	binds
B4	binds
B5	binds
B6	binds
B7	binds
B8	binds
B9	binds
B10	binds
B11	binds
B12	binds
B13	binds
B14	binds
B15	binds
B16	binds
B17	binds
B18	binds
B19	binds
B20	binds
B21	binds
B22	binds

molecular target: T1, EGFR extracellular domain (R&D Systems); experiment: SPR, Fab over EGFR on CM5 chip

Binder	Kd [nM]	koff [s⁻¹]	kon [M⁻¹ s⁻¹]
B23	0.257	2.53e-05	98600
B24	0.45	0.000106	235000
